Data reported in patent US20260250410A1, “ANTIBODY AND USE THEREOF” (SICHUAN HUIYU PHARMACEUTICAL CO., LTD., priority 2022, published 2026).
Numbering of substitutions follows the chain as printed.

B1: 12E6: anti-CDCP1 murine monoclonal antibody (hybridoma); VH SEQ ID NO: 255, VL SEQ ID NO: 305 (antibody, V domains shown)
VH: EVQLKESGPGILQPSQTLSLTCSFSGFSLSTSGMGVGWIRQPSGKGLEWLAHIWWDDVKLYNPALKSRLTISKETSNNQVFLKIASVDAADTATYYCARIDHGYGSNYWDFDVWGAGTTVTVSS
VL: DIVMTQAAPSVPVTPGGSVSISCRSTKSLLHSDGKTYLYWFLQRPGQSPQLLIYRMSNLASGVPDRFSGSGSGTAFTLRISRVEAEDVGVYYCMQHLEYPFTFGSGTKLEIK
modifications: 12E6 heavy chain variable region; 12E6 light chain variable region
B2: 1CP-062: anti-CDCP1 murine monoclonal antibody (hybridoma); VH SEQ ID NO: 264, VL SEQ ID NO: 314 (antibody, V domains shown)
VH: EVKLVESGPGLVAPSQSLSITCTVSGFSLTTYGVHWVRQPPGKGLEWLVVIWSDGNTTYNSALKSRLSINKDNSKSQVFLKMNSLQTDDTAMYYCAKNYRNYDYAMDYWGQGTTVTVSS
VL: DIVMTQTPASLAVSLGQRATISCRASESVDSYGNSFMHWYQQKPGQPPKLLIYRASNLESGIPARFSGSGSRTDFTLTINPVEADDVATYYCQQSNEDPYTFGGGTKLEIK
modifications: 1CP-062 heavy chain variable region; 1CP-062 light chain variable region
B3: 1CP-067: anti-CDCP1 murine monoclonal antibody (hybridoma); VH SEQ ID NO: 265, VL SEQ ID NO: 315 (antibody, V domains shown)
VH: EVQLKESGGGLVKPGGSLKLSCTASGFTFSVYGMSWVRQTPEKRLEWVATLSGGSNYTYYSDSVKGRFTISRDTGKNNLYLQMSSLSSDDTALYYCATEDGLIGTWGDYWGQGTTVTVSS
VL: DIVMTQAAFSNPVTLGTSASISCRSTKSLLHSNGITYLYWFLQKPGQSPQLLIYQMSNLASGVPDRFSSSGSGTDFTLRISRVEAEDVGVYYCAQNLELPFTFGGGTKLEIK
modifications: 1CP-067 heavy chain variable region; 1CP-067 light chain variable region
B4: 1CP-069: anti-CDCP1 murine monoclonal antibody (hybridoma); VH SEQ ID NO: 266, VL SEQ ID NO: 316 (antibody, V domains shown)
VH: B3 VH with K5Q, E6Q, S55D, S61T, G75A, S87R, D89E, Y95F
VL: B3 VL with F41Y
modifications: 1CP-069 heavy chain variable region; 1CP-069 light chain variable region
B5: 1CP-064: anti-CDCP1 murine monoclonal antibody (hybridoma); VH SEQ ID NO: 267, VL SEQ ID NO: 317 (antibody, V domains shown)
VH: EVKLVESGPGILQPSQTLSLTCSFSGFSLSTSGMGVGWIRQPSGKGLEWLAHIWWDDVKRYNPALKSRLTISKDTSSSQVFLKIASVDTADTATYYCARMGGKVPWFAYWGQGTTVTVSS
VL: B2 VL with I2V, R54L, I62V, N80D, V87A, S95N, Y100W
modifications: 1CP-064 heavy chain variable region; 1CP-064 light chain variable region
B6: 1CP-066: anti-CDCP1 murine monoclonal antibody (hybridoma); VH SEQ ID NO: 268, VL SEQ ID NO: 318 (antibody, V domains shown)
VH: EVTLKESGPELKKPGETVKISCKASGYAFTKYGMNWVKQAPGKDLKFMGWINTYTGEATYADDFKGRFDFSLEASASTAFLRINNLKNEDTATYFCSRGDDYGTGGYVLFYWGQGTTVTVSS
VL: DIVMTQAAASLSVTVGETVTITCRASENIYNNLAWYQQQQGKSPQLLVYAATNLADGVPSRFSGSGSGTHYSLKINSLQSEDFGFYYCQHFWGTPPTFGGGTKLEIK
modifications: 1CP-066 heavy chain variable region; 1CP-066 light chain variable region
B7: 1CP-065: anti-CDCP1 murine monoclonal antibody (hybridoma); VH SEQ ID NO: 269, VL SEQ ID NO: 319 (antibody, V domains shown)
VH: EVTLKESGAELVRPGALVKLSCKASGFNIKDYYMHWVKQRPEQGLEWIGWIDPENDNTIYDPKFQGKASITADTSSNTAYLQLSSLTSEDTAVYYCARFYGSYYYAMDYWGQGTTVTVSS
VL: DIVMTQSPKFMSTSVGDRVSITCKASQDVSTAVTWYQQKPGQSPKLLIYWASTRHTGVPDRFTGSGSGTDYTLTISSVQAEDLALYYCQQHYSTPYTFGGGTKLEIK
modifications: 1CP-065 heavy chain variable region; 1CP-065 light chain variable region
B8: 1CP-068: anti-CDCP1 murine monoclonal antibody (hybridoma); VH SEQ ID NO: 270, VL SEQ ID NO: 320 (antibody, V domains shown)
VH: EVQLKESGAELVRPGALVKLSCKASGFNIKDYYMYWVKQRPEQGLEWIGWIDPENGNTIYDPKLQGKARITADTSSNTAYLQLSSLTSEDTAVYYCAGRLYAMEYWGQGTTVTVSS
VL: DVVMTQTPALMSASPGEKVTMTCSASSSVSYMYWYQQKPRSSPKPWIYLTSNLASGVPARFSGSGSGTSYSLTISSMEAEDAATYYCQQWSSDPFTFGGGTKLEIK
modifications: 1CP-068 heavy chain variable region; 1CP-068 light chain variable region

Tested on: MDA-MB-231 cells
Test: Endocytosis capacity of murine monoclonal antibody (flow cytometry internalization)
Assay type: cell-based, human
Conditions: MDA-MB-231, 0.5 h at 37° C., antibody 1.5 μg/mL
Method: (§1) The endocytosis capacity of the antibody was detected for 0.5 to 2 hours. MDA-MB-231 and PC3 cells were subjected to digestion with 5 mM EDTA, and plated at 4×10^4 cells/well after cell counting. After adding an Fc blocker (Human TruStain FcX™, Biolegend, 422302) and blocking at room temperature for 10 mins, a test antibody (1.5 μg/mL) was added, and the mixture was incubated at 4° C. for 30 mins, centrifuged, and washed twice with PBS+2% FBS, then the cells were divided into four equal portions (labeled as 0 h, 0.5 h, 1 h, 2 h), cells labeled as 0.5 h, 1 h, 2 h time points were added to a cell culture medium at 200 µL/well, and cultured at 37° C. for 0.5 h, 1 h, 2 h, respectively. Cells at 0 h point were centrifuged to remove supernatant, a secondary antibody (PE anti-human IgG Fc Antibody, Biolegend, 410708) was added, and the mixture was incubated at 4° C. for 30 mins, centrifuged, and washed twice with PBS+2% FBS, and detection was performed using a flow cytometer. After incubation of cells labeled as 0.5 h, 1 h, and 2 h points at 37° C. was completed, a secondary antibody was added (in the same steps as those at 0 h point), Geo-MFI of the signal under the same voltage was collected as detection signal at 0 h, and antibody internalization rate was calculated according to the following equation: Internalization (%)=(Geo-MFI (0 h)-Geo-MFI (0.5, 1, 2 h))/Geo-MFI (0 h)×100%.

For B1, the “Internalization MDA-MB-231 (%) 0.5 h” value was 10.62%.

Same assay, conditions: MDA-MB-231, 1 h at 37° C., antibody 1.5 μg/mL

For B1, the “Internalization MDA-MB-231 (%) 1 h” value was 7.08%.

Same assay, conditions: MDA-MB-231, 2 h at 37° C., antibody 1.5 μg/mL

Point of comparison: B4, “Internalization MDA-MB-231 (%) 2 h” value 73.58%. Against it:
- B2 — lower, 59.61%
- B3 — lower, 69.09%
- B5 — higher, 93.43%
- B6 — lower, 55.57%
- B7 — lower, 52.89%
- B8 — lower, 49.47%
- B1 — lower, 27.65%

Tested on: PC3 cells
Test: as above
Assay type: cell-based, human
Conditions: PC3, 0.5 h at 37° C., antibody 1.5 μg/mL
Method: as §1

For B1, the “Internalization PC3 (%) 0.5 h” value was 0.00%.

Same assay, conditions: PC3, 1 h at 37° C., antibody 1.5 μg/mL

With B1 the “Internalization PC3 (%) 1 h” value was 0.00%.

Same assay, conditions: PC3, 2 h at 37° C., antibody 1.5 μg/mL

Point of comparison: B2, “Internalization PC3 (%) 2 h” value 66.74%. Against it:
- B3 — higher, 72.66%
- B4 — higher, 73.92%
- B5 — higher, 93.05%
- B6 — lower, 33.21%
- B7 — higher, 68.71%
- B8 — lower, 66.24%
- B1 — lower, 7.99%
